Source: article PMC4141209 (FEBS Open Bio, 2014)

Molecular target: the molecule itself
Test: SEC

B1: TlLhpH (trans-3-hydroxy-L-proline dehydratase from Thermococcus litoralis DSM 5473) (enzyme, UniProt H3ZMH8 1-348, looked up)
chain: MFKKLENLEKWEPPKDWMVIKTLDTHTAGEPLRIILSGFPEIPGKTILEKRRYLMENLDHLRKALMWEPRGHADMYGAIITEPVSEEADFGVIFMHNEGYSTMCGHATIALGKVAVECGLVEAKEPITEIKMDSPAGLIKIYVKVRDGKVEKVYFHNVPSFVLFKDETINVPGIGEVKYDLAYGGAFYAFVNAEEIGLKCTPEYYRQLIDVGMKIKRAIMSEKEIRHPFEEDLSFLYGTIFIGEPEDENSHSRHVCIFADGEVDRSPTGTGVSARLAILYEKGEIDIGEEITIESIIGTKFTGKVVEETRYGLYRAIIPEVGGNAYIVAKNTFLIDPQDPLKYGFFLR
**Q.** How did the “stoichiometry N” value turn out when B1 was run?
**A.** The value was 2.
